Reference: patent US20230122503A1, “ANTI-PSMA RADIOCONJUGATES AND USES THEREOF” (Janssen Biotech, Inc., priority 2021, published 2023)

Biological target: human prostate-specific membrane antigen (PSMA), full length, on cells (human) (UniProt Q04609)
Assay: cell-based or functional assay

Chain of human prostate-specific membrane antigen (PSMA), full length, on cells (human) (Q04609 whole entry): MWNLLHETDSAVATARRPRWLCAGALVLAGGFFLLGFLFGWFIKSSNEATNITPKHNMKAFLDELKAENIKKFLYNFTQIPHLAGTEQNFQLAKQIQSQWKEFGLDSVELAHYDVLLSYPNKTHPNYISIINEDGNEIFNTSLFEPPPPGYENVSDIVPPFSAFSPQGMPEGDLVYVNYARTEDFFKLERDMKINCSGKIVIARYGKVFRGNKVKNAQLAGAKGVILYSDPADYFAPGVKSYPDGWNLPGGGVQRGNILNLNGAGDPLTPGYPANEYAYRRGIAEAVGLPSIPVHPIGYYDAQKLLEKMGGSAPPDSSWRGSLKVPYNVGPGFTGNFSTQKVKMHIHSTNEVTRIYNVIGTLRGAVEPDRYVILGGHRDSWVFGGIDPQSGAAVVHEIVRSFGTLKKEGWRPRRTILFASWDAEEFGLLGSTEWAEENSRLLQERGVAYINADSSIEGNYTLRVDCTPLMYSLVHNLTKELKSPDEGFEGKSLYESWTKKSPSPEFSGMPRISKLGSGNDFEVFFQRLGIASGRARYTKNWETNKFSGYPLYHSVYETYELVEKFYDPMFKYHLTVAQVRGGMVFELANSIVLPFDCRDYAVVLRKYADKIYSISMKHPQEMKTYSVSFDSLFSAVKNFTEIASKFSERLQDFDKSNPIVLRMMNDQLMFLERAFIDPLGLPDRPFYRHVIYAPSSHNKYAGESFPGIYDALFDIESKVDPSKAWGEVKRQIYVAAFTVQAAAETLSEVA

Isotype control conjugated to DX8951 (antibody)
IC50 (cytotoxicity on 22RV1 cells, DX8951 ADC, DAR 8, 6 d): 57.2 nM

Isotype control conjugated to MMAF (antibody)
IC25 (cytotoxicity on 22RV1 cells, MMAF ADC, DAR 4.3, 6 d): > 100 nM
